Results: patent US20240288436A1 (KOREA ATOMIC ENERGY RESEARCH INSTITUTE, published 2024)

T1: Biotin-GSAGGSTWGYPFHDGDYLNDE synthetic peptide (human TM4SF4 aa 126-140) (human, N-terminal biotin)
T1 construct: Immobilised on a streptavidin sensor chip as the SPR ligand; also called Biotin-hTM4SF4 aa 126-140; human TM4SF4-peptide (hTM4SF4 aa 126-140)
T1 peptide: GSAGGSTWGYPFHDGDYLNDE

B1: Hz2B7-1.3 humanized anti-TM4SF4 antibody (LC N31V) (antibody, V domains shown)
VH: EITLKESGPTLVKPTQTLTLTCTFSGFSLSTYGIGVSWIRQPPGKALEWLAHIWWNDNKYYNTALKSRLTITKDTSKNQVVLTMTNMDPVDTATYYCARKEGSSAPFAYWGQGTLVTVSS
VL: DIVMTQSPDSLAVSLGERATINCKSSQSLLVSSNQKNYLAWYQQKPGQPPKLLIYFASTRESGVPDRFSGSGSGTDFTLTISLMQAEDVAVYYCQQHYRTPPTFGQGTKVEIK
notes: Whole IgG, human IgG1 / kappa constant regions from the pdCMV-dhfr vector; only VH and VL are tied to the antibody; also called HzE2B7-1.3; HzE2B7-1.3(LC N31V)
B2: Hz2B7-3.2 humanized anti-TM4SF4 antibody (HC W55S, LC N31F) (antibody, V domains shown)
VH: EITLKESGPTLVKPTQTLTLTCTFSGFSLSTYGIGVSWIRQPPGKALEWLAHIWSNDNKYYNTALKSRLTITKDTSKNQVVLTMTNMDPVDTATYYCARKEGSSAPFAYWGQGTLVTVSS
VL: DIVMTQSPDSLAVSLGERATINCKSSQSLLFSSNQKNYLAWYQQKPGQPPKLLIYFASTRESGVPDRFSGSGSGTDFTLTISLMQAEDVAVYYCQQHYRTPPTFGQGTKVEIK
notes: Whole IgG, human IgG1 / kappa constant regions; also called HzE2B7-3.2; HzE2B7-3.2(HC W55S, LC N31F)
B3: Hz2B7-4.3 humanized anti-TM4SF4 antibody (HC W55Y, LC N31V) (antibody, V domains shown)
VH: EITLKESGPTLVKPTQTLTLTCTFSGFSLSTYGIGVSWIRQPPGKALEWLAHIWYNDNKYYNTALKSRLTITKDTSKNQVVLTMTNMDPVDTATYYCARKEGSSAPFAYWGQGTLVTVSS
VL: DIVMTQSPDSLAVSLGERATINCKSSQSLLVSSNQKNYLAWYQQKPGQPPKLLIYFASTRESGVPDRFSGSGSGTDFTLTISLMQAEDVAVYYCQQHYRTPPTFGQGTKVEIK
notes: Whole IgG, human IgG1 / kappa constant regions; also called HzE2B7-4.3; HzE2B7-4.3(HC W55Y, LC N31V)
B4: Hz2B7-1.1 humanized anti-TM4SF4 antibody (antibody, human IgG1, V domains shown)
VH: EITLKESGPTLVKPTQTLTLTCTFSGFSLSTYGIGVSWIRQPPGKALEWLAHIWWNDNKYYNTALKSRLTITKDTSKNQVVLTMTNMDPVDTATYYCARKEGSSAPFAYWGQGTLVTVSS
VL: DIVMTQSPDSLAVSLGERATINCKSSQSLLNSSNQKNYLAWYQQKPGQPPKLLIYFASTRESGVPDRFSGSGSGTDFTLTISLMQAEDVAVYYCQQHYRTPPTFGQGTKVEIK
notes: Tested as whole IgG from the pdCMV-dhfr vector (human IgG1 heavy constant, human kappa light constant); also called HzE2B7-1.1; HzE2B7-1.1(origin)
B5: Hz2B7-1.2 humanized anti-TM4SF4 antibody (LC N31F) (antibody, V domains shown)
VH: EITLKESGPTLVKPTQTLTLTCTFSGFSLSTYGIGVSWIRQPPGKALEWLAHIWWNDNKYYNTALKSRLTITKDTSKNQVVLTMTNMDPVDTATYYCARKEGSSAPFAYWGQGTLVTVSS
VL: DIVMTQSPDSLAVSLGERATINCKSSQSLLFSSNQKNYLAWYQQKPGQPPKLLIYFASTRESGVPDRFSGSGSGTDFTLTISLMQAEDVAVYYCQQHYRTPPTFGQGTKVEIK
notes: Whole IgG, human IgG1 / kappa constant regions from the pdCMV-dhfr vector; only VH and VL are tied to the antibody; also called HzE2B7-1.2; HzE2B7-1.2(LC N31F)
B6: Hz2B7-2.1 humanized anti-TM4SF4 antibody (antibody, human IgG1, V domains shown)
VH: EITLKESGPTLVKPTQTLTLTCTFSGFSLSTYGIGVSWIRQPPGKVLEWLAHIWWNDNKYYNTALKSRLTITKDTSKNQVVLTMTNMDPVDTATYYCARKEGSSAPFAYWGQGTLVTVSS
VL: DIVMTQSPDSLAVSLGERATINCKSSQSLLNSSNQKNYLAWYQQKPGQPPKLLIYFASTRESGVPDRFSGSGSGTDFTLTISLMQAEDVAVYYCQQHYRTPPTFGQGTKVEIK
notes: Whole IgG, human IgG1 / kappa constant regions
B7: Hz2B7-3.1 humanized anti-TM4SF4 antibody (antibody, human IgG1, V domains shown)
VH: EITLKESGPTLVKPTQTLTLTCTFSGFSLSTYGIGVSWIRQPPGKALEWLAHIWSNDNKYYNTALKSRLTITKDTSKNQVVLTMTNMDPVDTATYYCARKEGSSAPFAYWGQGTLVTVSS
VL: DIVMTQSPDSLAVSLGERATINCKSSQSLLNSSNQKNYLAWYQQKPGQPPKLLIYFASTRESGVPDRFSGSGSGTDFTLTISLMQAEDVAVYYCQQHYRTPPTFGQGTKVEIK
notes: as for B6
B8: Hz2B7-3.3 humanized anti-TM4SF4 antibody (antibody, human IgG1, V domains shown)
VH: EITLKESGPTLVKPTQTLTLTCTFSGFSLSTYGIGVSWIRQPPGKALEWLAHIWSNDNKYYNTALKSRLTITKDTSKNQVVLTMTNMDPVDTATYYCARKEGSSAPFAYWGQGTLVTVSS
VL: DIVMTQSPDSLAVSLGERATINCKSSQSLLVSSNQKNYLAWYQQKPGQPPKLLIYFASTRESGVPDRFSGSGSGTDFTLTISLMQAEDVAVYYCQQHYRTPPTFGQGTKVEIK
notes: as for B6
B9: Hz2B7-4.1 humanized anti-TM4SF4 antibody (antibody, human IgG1, V domains shown)
VH: EITLKESGPTLVKPTQTLTLTCTFSGFSLSTYGIGVSWIRQPPGKALEWLAHIWYNDNKYYNTALKSRLTITKDTSKNQVVLTMTNMDPVDTATYYCARKEGSSAPFAYWGQGTLVTVSS
VL: DIVMTQSPDSLAVSLGERATINCKSSQSLLNSSNQKNYLAWYQQKPGQPPKLLIYFASTRESGVPDRFSGSGSGTDFTLTISLMQAEDVAVYYCQQHYRTPPTFGQGTKVEIK
notes: as for B6
B10: Hz2B7-4.2 humanized anti-TM4SF4 antibody (antibody, human IgG1, V domains shown)
VH: EITLKESGPTLVKPTQTLTLTCTFSGFSLSTYGIGVSWIRQPPGKALEWLAHIWYNDNKYYNTALKSRLTITKDTSKNQVVLTMTNMDPVDTATYYCARKEGSSAPFAYWGQGTLVTVSS
VL: DIVMTQSPDSLAVSLGERATINCKSSQSLLFSSNQKNYLAWYQQKPGQPPKLLIYFASTRESGVPDRFSGSGSGTDFTLTISLMQAEDVAVYYCQQHYRTPPTFGQGTKVEIK
notes: as for B6

Key:
[1] = biological target: T1, Biotin-GSAGGSTWGYPFHDGDYLNDE synthetic …; assay: SPR, Biacore T200, biotin-peptide on streptavidin chip, antibody as analyte, 1:1 binding
Experimental: (§1) First, a streptavidin-conjugated sensor chip (Series S Senser Chip SA, Cytiva) was inserted into Biacore T200 (Cytiva), and activation buffer (1M NaCl, 50 mM NaOH) was flowed for 30 seconds, followed by HBS-EP buffer (Cytiva) to induce activation and stabilization of the sensor chip surface. […] The analyze antibodies of each concentration were flowed through the constructed ligand-bound streptavidin conjugated sensor chip at a rate of 30 ul/min for 480 seconds to induce binding, and then HBS-EP buffer solution was flowed at the same time and speed, and the degree to which the analyte antibody was dissociated from the ligand peptide was obtained in the form of a response unit. The association rate (Ka), dissociation rate (Kd), and equilibrium dissociation constant (KD, Kd/Ka) values were calculated using Biacore T200 evaluation software (Cytiva) by excluding the ligand-unbound sensor chip response values obtained in the same manner. As a calculation standard, the mass transfer fitting model for the interaction between the ligand peptide and the analyte antibody was analyzed using 1:1 binding.

[2] = biological target: T2, BSA (UniProt P02769 25-607); assay: indirect ELISA on coated BSA (1 µg/ml), anti-human IgG kappa-HRP, OD490nm
T2 construct: Coated at 1 ug/ml as the specificity control; also called BSA solution
T2 sequence (P02769 25-607 limits assumed): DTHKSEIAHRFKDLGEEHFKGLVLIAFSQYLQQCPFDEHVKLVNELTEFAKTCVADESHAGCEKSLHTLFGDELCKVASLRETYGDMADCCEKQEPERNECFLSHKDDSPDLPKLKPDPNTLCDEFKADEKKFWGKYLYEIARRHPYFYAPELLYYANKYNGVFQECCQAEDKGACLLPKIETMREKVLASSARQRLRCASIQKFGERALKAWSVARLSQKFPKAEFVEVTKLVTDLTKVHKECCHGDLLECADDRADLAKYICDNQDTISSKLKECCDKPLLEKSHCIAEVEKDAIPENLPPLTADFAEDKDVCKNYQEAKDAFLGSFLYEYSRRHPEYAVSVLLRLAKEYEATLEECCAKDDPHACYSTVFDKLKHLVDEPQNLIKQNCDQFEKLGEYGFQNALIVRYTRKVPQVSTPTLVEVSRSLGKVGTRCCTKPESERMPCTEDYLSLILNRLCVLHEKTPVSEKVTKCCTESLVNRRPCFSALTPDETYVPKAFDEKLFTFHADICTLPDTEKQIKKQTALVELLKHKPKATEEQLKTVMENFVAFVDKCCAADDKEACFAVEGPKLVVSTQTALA
Experimental: Specifically, the humanized antibody was manufactured in 10 types of Hz2B7-1.1, Hz2B7-1.2, Hz2B7-1.3, Hz2B7-2.1, Hz2B7-3.1, Hz2B7-3.2, Hz2B7-3.3, Hz2B7-4.1, Hz2B7-4.2 and Hz2B7-4.3, by combining 4 heavy chain variable region variants and 3 light chain variable region variants designed through Examples 1 and 2 above. For this, 100 μ of TM4SF4-BSA (1 μg/m ) or BSA solution (1 μg/M ) dissolved in coating buffer (100 mM carbonate/bicarbonate coating buffer, pH 9.6) was added to the bottom of each well of a 96-well plate and adsorbed at 4° C. for more than 16 hours. Next, the coated antigen was washed three times with washing buffer (wash buffer, 0.05% PBS-T, Tween-20), then 200 μ of block buffer (blocking buffer, 5% skim milk in wash buffer) was added to the bottom of each well where the antigen was not adsorbed, reacted at 4° C. for more than 16 hours, and then washed again three times with washing buffer. Then, the 10 combinations of the humanized antibodies and the chimeric antibodies purified through Experimental Example 1 were prepared by diluting them to various concentrations using block buffer, and then 100 μ a of each concentration was added to each well and reacted for 2 hours at room temperature. After washing again three times, 1 mg/ml antibody (α-human IgG-Kappa chain-HRP, Bethyl, USA) for detection was diluted 10,000-fold using block buffer solution, and 100 μ was added to each well and incubated at room temperature for 1 hour. After the reaction was completed, the wells were washed three times with washing buffer, 100 μl of substrate solution (OPD solution, 4 μ 30% H₂O₂, 100 μ OPD stock (40 mg/m ), adjusted to 10 m with phosphate citrate buffer) was added to each well, and the reaction was performed at room temperature. Then, 50 μl of 2.5M H₂SO₄ was added to terminate the reaction. Finally, to measure the activity of the enzyme bound to the solid phase, the absorbance was measured at 490 nm using an ELISA reader (FIG. 10).

[3] = biological target: T1, Biotin-GSAGGSTWGYPFHDGDYLNDE synthetic …; assay: SPR (Biacore T200), biotin-TM4SF4(126-140) peptide captured on SA sensor chip, antibody as analyte, 1:1 binding model with mass transfer
Experimental: as §1

| Binder | Kd [1] | binding result [2] | koff [3] | kon [3] |
| --- | --- | --- | --- | --- |
| B1 | 35.4 nM | no binding (tested: 1000 ng/ml) |  |  |
| B2 | 112 nM | no binding (tested: 1000 ng/ml) | 0.000792 s⁻¹ | 7080 M⁻¹ s⁻¹ |
| B3 |  | no binding (tested: 1000 ng/ml) |  |  |
| B4 |  | no binding (tested: 1000 ng/ml) |  |  |
| B5 |  | no binding (tested: 1000 ng/ml) |  |  |
| B6 |  | no binding (tested: 1000 ng/ml) |  |  |
| B7 |  | no binding (tested: 1000 ng/ml) |  |  |
| B8 |  | no binding (tested: 1000 ng/ml) |  |  |
| B9 |  | no binding (tested: 1000 ng/ml) |  |  |
| B10 |  | no binding (tested: 1000 ng/ml) |  |  |
